The values that follow come from PMC13638050 (PLOS Biology, 2026).

Residue numbers refer to the chain shown, from its start. Numbers in names are those of the source.

T1: influenza B/Lee/1940 (B/Lee40) HA (influenza B virus B/Lee/1940, biotin on the BirA biotinylation site (BirA kit))
T1 construct: source: Sf9 (baculovirus), purified from the supernatant (Ni Sepharose excel, SEC)
T1 chain: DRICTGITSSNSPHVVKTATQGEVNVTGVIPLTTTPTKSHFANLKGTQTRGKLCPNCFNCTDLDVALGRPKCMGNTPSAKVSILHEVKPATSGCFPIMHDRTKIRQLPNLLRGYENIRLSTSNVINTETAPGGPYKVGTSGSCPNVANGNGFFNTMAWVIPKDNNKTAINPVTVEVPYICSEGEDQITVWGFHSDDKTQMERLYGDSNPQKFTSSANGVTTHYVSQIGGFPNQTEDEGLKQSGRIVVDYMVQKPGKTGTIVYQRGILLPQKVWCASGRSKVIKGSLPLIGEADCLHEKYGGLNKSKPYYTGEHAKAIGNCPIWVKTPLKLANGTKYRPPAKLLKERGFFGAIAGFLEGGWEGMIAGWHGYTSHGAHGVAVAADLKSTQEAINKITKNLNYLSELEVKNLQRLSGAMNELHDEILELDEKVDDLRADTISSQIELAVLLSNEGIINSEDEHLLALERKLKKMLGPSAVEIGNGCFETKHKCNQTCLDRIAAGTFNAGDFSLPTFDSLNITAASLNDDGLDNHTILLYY

B1: germline CR9114 Fab (inferred germline of CR9114) (Fab, V domains shown)
VH: QVQLVQSGAEVKKPGSSVKVSCKASGGTFSSYAISWVRQAPGQGLEWMGGIIPIFGTANYAQKFQGRVTITADKSTSTAYMELSSLRSEDTAVYYCARHGNYYYYYGMDVWGQGTTVTVS
VL: SYVLTQPPAVSGTPGQRVTISCSGSDSNIGRRSVNWYQQFPGTAPKLLIYSNDQRPSVVPDRFSGSKSGTSASLAISGLQSEDEAEYYCAAWDDSLKGAVFGGGTQLTVL
B2: somatic CR9114 Fab VH S24L (Fab, V domains shown)
VH: QVQLVQSGAEVKKPGSSVKVSCKLSGGTSNNYAISWVRQAPGQGLDWMGGISPIFGSTAYAQKFQGRVTISADIFSNTAYMELNSLTSEDTAVYFCARHGNYYYYSGMDVWGQGTTVTVSS
VL: B1 VL
B3: somatic CR9114 Fab VH S52G (Fab, V domains shown)
VH: B2 VH with L24S, S52G
VL: B1 VL
B4: somatic CR9114 Fab VH S24F (Fab, V domains shown)
VH: B2 VH with L24F
VL: B1 VL
B5: somatic CR9114 Fab VH I73W (Fab, V domains shown)
VH: B2 VH with L24S, I74W
VL: B1 VL
B6: somatic CR9114 Fab VH S52V (Fab, V domains shown)
VH: B2 VH with L24S, S52V
VL: B1 VL

For the first assay, the target named is H1 stem (recombinant HA stem construct #4900 designed based on H1N1 A/Brisbane/59/2007 HA) (influenza A virus H1N1 …, biotin on the BirA biotinylation site (BirA kit)). In words: BLI. The conditions noted are these: both partners purified.
What is called Kd is the constant that tells how readily two partners part at equilibrium. As to B1, the Kd is 185 nM.

The target of a further assay is T1, influenza B/Lee/1940 (B/Lee40) HA. In words: BLI. The note with it: both partners purified.
With B2, the binding result is recorded as “no binding”.
As to B3, the binding result is given as “no binding”.
With B4, the binding result is on record as “no binding”.
Regarding B5, the binding result is given as “no binding”.
On to B6, for which the binding result is “no binding”.
